In US20260234269A1:

Columns and labels:
[1] = target: human Gal9 protein (R&D systems) (human) (UniProt O00182); experiment: ELISA, hGal9 coated, mTIM-3 Fc with or without 25 mM lactose
[2] = target: mouse Gal3 on mouse cells (B16F10 tumor cells, RAW264.7 macrophages) (mouse) (UniProt P16110); experiment: flow cytometry, B16F10 cells
mouse Gal3 on mouse cells (B16F10 tumor cells, RAW264.7 macrophages) (mouse), sequence (P16110 2-264): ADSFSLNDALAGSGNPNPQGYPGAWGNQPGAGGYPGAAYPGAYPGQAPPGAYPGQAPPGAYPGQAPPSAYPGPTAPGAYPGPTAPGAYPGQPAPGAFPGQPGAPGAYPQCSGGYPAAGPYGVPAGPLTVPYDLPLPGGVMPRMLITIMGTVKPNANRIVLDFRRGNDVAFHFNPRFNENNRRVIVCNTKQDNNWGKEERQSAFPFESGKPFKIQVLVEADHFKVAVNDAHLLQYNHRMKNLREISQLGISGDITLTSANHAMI

human Gal9 protein (R&D systems) (human), sequence (O00182 other isoform, or with tags, fused parts or gaps limits assumed): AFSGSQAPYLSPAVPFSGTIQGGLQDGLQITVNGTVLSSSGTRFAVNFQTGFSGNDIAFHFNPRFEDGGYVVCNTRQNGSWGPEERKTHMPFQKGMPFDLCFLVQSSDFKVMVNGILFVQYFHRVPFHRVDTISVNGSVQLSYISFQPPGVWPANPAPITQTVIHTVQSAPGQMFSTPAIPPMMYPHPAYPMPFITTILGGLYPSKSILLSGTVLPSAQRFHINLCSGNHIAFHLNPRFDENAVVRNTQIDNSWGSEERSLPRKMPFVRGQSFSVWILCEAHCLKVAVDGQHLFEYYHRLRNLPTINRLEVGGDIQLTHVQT

“mouse TIM-3 Fc protein (R&D systems) (from UniProt Q8VIM0 20-191) (Fc fusion)” showed a fold reduction in signal with 25 mM lactose [1] greater than 10 fold.
In the case of “rat anti mouse Gal3 PE antibody (Thermo Fisher Scientific)”, the MFI, fold over isotype control antibody [2] is reported as 10 fold.
